“And” between values parts separate entries of the source, which are not always exact repeats. Identical values can stand only once.
Columns and labels:
SecA-N68∆C (E. coli) = SecA-N68∆C (E. coli) (UniProt P10408); assay: AUC; sedimentation velocity, 20 °C, 50 mM Tris-HCl pH 7.5, 100 mM KCl, 2 mM EDTA, 5 mM MgCl2, 5 mM TCEP-HCl; SedFit analysis at a range of concentrations
SecA-N68∆N (E. coli) = SecA-N68∆N (E. coli) (UniProt P10408); assay: as above
[1] = biological target: the molecule itself; assay: as above
[2] = biological target: the molecule itself; assay: AUC; sedimentation equilibrium, 20 °C, 50 mM Tris-HCl pH 7.5, 100 mM KCl, 2 mM EDTA, 5 mM MgCl2; global fit of nine curves at three rotor speeds; dimer to monomers
[3] = biological target: the molecule itself; assay: SEC; analytical gel filtration, Superdex 200 HR 10/30, 50 mM Tris-HCl pH 7.5, 100 mM KCl, 1 mM EDTA, 5 mM MgCl2, 5 mM β-mercaptoethanol, room temperature; H6-SecA-N68 applied at up to 4 mg/mL, SecA-N68∆NC at 10 mg/mL

Question: For “SecA-N68∆C (from UniProt P10408 1-590) (domain or fragment)”, which stoichiometry N (SecA-N68∆C (E. coli)) is on record?
Answer: The stoichiometry N was 2.

Question: “SecA-N68∆N (from UniProt P10408 15-610) (domain or fragment)” was tested. Which relative amount of the dimer at 4 mg/mL (SecA-N68∆N (E. coli)) did it give?
Answer: Its relative amount of the dimer at 4 mg/mL is 50%.

Question: And the stoichiometry N (SecA-N68∆N (E. coli))?
Answer: Its stoichiometry N is 2.

B1: SecA-N68 with a wild-type N-terminus (domain or fragment, E. coli, UniProt P10408 1-610, looked up)
chain: MLIKLLTKVFGSRNDRTLRRMRKVVNIINAMEPEMEKLSDEELKGKTAEFRARLEKGEVLENLIPEAFAVVREASKRVFGMRHFDVQLLGGMVLNERCIAEMRTGEGKTLTATLPAYLNALTGKGVHVVTVNDYLAQRDAENNRPLFEFLGLTVGINLPGMPAPAKREAYAADITYGTNNEYGFDYLRDNMAFSPEERVQRKLHYALVDEVDSILIDEARTPLIISGPAEDSSEMYKRVNKIIPHLIRQEKEDSETFQGEGHFSVDEKSRQVNLTERGLVLIEELLVKEGIMDEGESLYSPANIMLMHHVTAALRAHALFTRDVDYIVKDGEVIIVDEHTGRTMQGRRWSDGLHQAVEAKEGVQIQNENQTLASITFQNYFRLYEKLAGMTGTADTEAFEFSSIYKLDTVVVPTNRPMIRKDLPDLVYMTEAEKIQAIIEDIKERTAKGQPVLVGTISIEKSELVSNELTKAGIKHNVLNAKFHANEAAIVAQAGYPAAVTIATNMAGRGTDIVLGGSWQAEVAALENPTAEQIEKIKADWQVRHDAVLEAGGLHIIGTERHESRRIDNQLRGRSGRQGDAGSSRFYLSMEDALMRIFASDRVSGMMRKL
notes: NBD1, PPXD and NBD2 with the unstructured N- and C-termini
Question: For B1, which “stoichiometry N” value [1] is on record?
Answer: The value was 2 and 4.

B2: SecA-N95ΔN (domain or fragment, E. coli, UniProt P10408 15-835, looked up)
chain: DRTLRRMRKVVNIINAMEPEMEKLSDEELKGKTAEFRARLEKGEVLENLIPEAFAVVREASKRVFGMRHFDVQLLGGMVLNERCIAEMRTGEGKTLTATLPAYLNALTGKGVHVVTVNDYLAQRDAENNRPLFEFLGLTVGINLPGMPAPAKREAYAADITYGTNNEYGFDYLRDNMAFSPEERVQRKLHYALVDEVDSILIDEARTPLIISGPAEDSSEMYKRVNKIIPHLIRQEKEDSETFQGEGHFSVDEKSRQVNLTERGLVLIEELLVKEGIMDEGESLYSPANIMLMHHVTAALRAHALFTRDVDYIVKDGEVIIVDEHTGRTMQGRRWSDGLHQAVEAKEGVQIQNENQTLASITFQNYFRLYEKLAGMTGTADTEAFEFSSIYKLDTVVVPTNRPMIRKDLPDLVYMTEAEKIQAIIEDIKERTAKGQPVLVGTISIEKSELVSNELTKAGIKHNVLNAKFHANEAAIVAQAGYPAAVTIATNMAGRGTDIVLGGSWQAEVAALENPTAEQIEKIKADWQVRHDAVLEAGGLHIIGTERHESRRIDNQLRGRSGRQGDAGSSRFYLSMEDALMRIFASDRVSGMMRKLGMKPGEAIEHPWVTKAIANAQRKVESRNFDIRKQLLEYDDVANDQRRAIYSQRNELLDVSDVSETINSIREDVFKATIDAYIPPQSLEEMWDIPGLQERLKNDFDLDLPIAEWLDKEPELHEETLRERILAQSIEVYQRKEEVVGAEMMRHFEKGVMLQTLDSLWKEHLAAMDYLRQGIHLRGYAQKDPKQEYKRESFSMFAAMLESLKYEVISTLSKVQVRMPE
notes: SecA, E. coli, first 14 N-terminal residues removed, truncated at residue 835; also called SecA-N95∆N; SecA-N95ΔN14
Question: How did the “stoichiometry N” value [1] turn out when B2 was run?
Answer: The value was 2.

Question: What about the Kd [2] of the same molecule?
Answer: Its Kd is 24.5 µM.

B3: SecA-N95 (domain or fragment, E. coli, UniProt P10408 1-835, looked up)
chain: MLIKLLTKVFGSRNDRTLRRMRKVVNIINAMEPEMEKLSDEELKGKTAEFRARLEKGEVLENLIPEAFAVVREASKRVFGMRHFDVQLLGGMVLNERCIAEMRTGEGKTLTATLPAYLNALTGKGVHVVTVNDYLAQRDAENNRPLFEFLGLTVGINLPGMPAPAKREAYAADITYGTNNEYGFDYLRDNMAFSPEERVQRKLHYALVDEVDSILIDEARTPLIISGPAEDSSEMYKRVNKIIPHLIRQEKEDSETFQGEGHFSVDEKSRQVNLTERGLVLIEELLVKEGIMDEGESLYSPANIMLMHHVTAALRAHALFTRDVDYIVKDGEVIIVDEHTGRTMQGRRWSDGLHQAVEAKEGVQIQNENQTLASITFQNYFRLYEKLAGMTGTADTEAFEFSSIYKLDTVVVPTNRPMIRKDLPDLVYMTEAEKIQAIIEDIKERTAKGQPVLVGTISIEKSELVSNELTKAGIKHNVLNAKFHANEAAIVAQAGYPAAVTIATNMAGRGTDIVLGGSWQAEVAALENPTAEQIEKIKADWQVRHDAVLEAGGLHIIGTERHESRRIDNQLRGRSGRQGDAGSSRFYLSMEDALMRIFASDRVSGMMRKLGMKPGEAIEHPWVTKAIANAQRKVESRNFDIRKQLLEYDDVANDQRRAIYSQRNELLDVSDVSETINSIREDVFKATIDAYIPPQSLEEMWDIPGLQERLKNDFDLDLPIAEWLDKEPELHEETLRERILAQSIEVYQRKEEVVGAEMMRHFEKGVMLQTLDSLWKEHLAAMDYLRQGIHLRGYAQKDPKQEYKRESFSMFAAMLESLKYEVISTLSKVQVRMPE
notes: SecA, E. coli, truncated at residue 835 (stop codon after residue 835); source: E. coli BL21(DE3), purified (ammonium sulfate, PhenylSepharose, Cibacron Blue Sepharose, MonoQ)
Question: What does the source list for B3?
Answer: stoichiometry N [1]: 2; Kd [2]: < 1 µM

B4: H6-SecA-N68 (domain or fragment, E. coli, UniProt P10408 6-610, looked up)
chain: LTKVFGSRNDRTLRRMRKVVNIINAMEPEMEKLSDEELKGKTAEFRARLEKGEVLENLIPEAFAVVREASKRVFGMRHFDVQLLGGMVLNERCIAEMRTGEGKTLTATLPAYLNALTGKGVHVVTVNDYLAQRDAENNRPLFEFLGLTVGINLPGMPAPAKREAYAADITYGTNNEYGFDYLRDNMAFSPEERVQRKLHYALVDEVDSILIDEARTPLIISGPAEDSSEMYKRVNKIIPHLIRQEKEDSETFQGEGHFSVDEKSRQVNLTERGLVLIEELLVKEGIMDEGESLYSPANIMLMHHVTAALRAHALFTRDVDYIVKDGEVIIVDEHTGRTMQGRRWSDGLHQAVEAKEGVQIQNENQTLASITFQNYFRLYEKLAGMTGTADTEAFEFSSIYKLDTVVVPTNRPMIRKDLPDLVYMTEAEKIQAIIEDIKERTAKGQPVLVGTISIEKSELVSNELTKAGIKHNVLNAKFHANEAAIVAQAGYPAAVTIATNMAGRGTDIVLGGSWQAEVAALENPTAEQIEKIKADWQVRHDAVLEAGGLHIIGTERHESRRIDNQLRGRSGRQGDAGSSRFYLSMEDALMRIFASDRVSGMMRKL
notes: SecA, E. coli, residues 6 to 610; lacks the C-terminal helical domains; The tag MHHHHHH stands in place of the first residues of SecA and was not removed; also called His6-SecA-N68; N-terminal histidine-tagged version of SecA-N68; not shown: His6 (MHHHHHH), N-terminal, kept
Question: Does B4 bind [3]?
Answer: Result: binds

Source: article PMC5603524, “An alternate mode of oligomerization for E. coli SecA” (Scientific Reports, 2017)
